Reference: the supplement of paper PMC9170038

Test system: K4 kissing-loop RNA reporter
Assay: apparent KD of K4 kissing-loop reporter; higher = weaker reporter binding
Details: Eterna round: R107
Protocol: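 RNA-MaP round R107: designed RNA switches with theophylline, tryptophan, arginine or FMN aptamers are transcribed on-chip within common flanks. They are titrated with a labelled K4 kissing-loop RNA reporter in RNA-MaP buffer (100 mM Tris pH 7.5, 80 mM KCl, 4 mM MgCl2), without ligand or with the indicated ligand. Median apparent KD per design.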

[1] = input ligand: theophylline 20 uM
[2] = input ligand: tryptophan 2.4 mM
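Further: bound reporter read as fluorescence of individual clusters on recovered sequencing chips by microscopy, with normalized cluster intensities fitted with a binding model.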

Row | Sequence | apparent KD of K4 kissing-loop reporter (input ligand: FMN 200 uM) [nM] | apparent KD of K4 kissing-loop reporter (input ligand: arginine 13.2 mM) [nM] | apparent KD of K4 kissing-loop reporter (input ligand: none) [nM] | apparent KD of K4 kissing-loop reporter [1] [nM] | apparent KD of K4 kissing-loop reporter [2] [nM]
1 | GAUUCUGUUCGAAAGAACGGAAUCACGGAAGGAGCGAGAGAAAUCUCAGGUAGGUCGCCGAAUUUUUGAUAGUGAUGUUAUCAUU [Arginine A K4 2] | 422 | 353 | 388 | 408 | 426
2 | UCAUCGGUACAAGGAUAUUAGAGGUAGUGAUGUUACCCGUUUUUUAUACAUCGAUGUCACCCUAACUAAGAAGGUGUUCAAACUU [theeternabot_exclusion_KL_FMN_B_7] | 62.5 | 52.7 | 50.2 | 54 | 38.4
3 | GCCGUAGAUUGAAGGAGCGGGAUAGAGAAAGUGAUGUUUUCUCUUUGACGGCGUCCUCGAUCCCAGGUAGGUCGCAAUCUACGGC | 76.1 | 75.2 | 81.2 | 73.5 | 70.2
4 | AAGUAGCUCUCGGCCGCCACUCCUCAGUGAUGUUGAGAUAUUAAGAGCCAAUUGGCUCAUAUAAAGAGGACCGGGAGAGCUACAA [AK4 SS Tryptophan B] | 248 | 276 | 357 | 282 | 128
5 | CGCGCGCGUUGAGAGGUGCGCGCGAAUGAUACCAGUAUAUAAGAAUACCCUUGGCAGCAUAAGAAAGAUAUAGUGAUGUUGUAUA [SSTheophA.F] | 346 | 130 | 250 | 308 | 228
6 | AAGUCAUAUAGAAGGAGCGUGUUUUUUAAUUUGUUUUCAUGAUCGAGUGAUGUUCGAUAUACACAGGUAGGUCGCUGUAUGAUAA [hbob_SS_Arginine_B_2t143] | 128 | 146 | 130 | 177 | 114
7 | CAUAGGAAACUAUGUUUCUCUCUUACUGAAGGAGCGCGUGAAAACGCAGGUAGGUCGCAGAAUUUAAAAGAGAGUGAUGUUCUCA [Ex Arginine A K4 11] | 431 | 374 | 598 | 572 | 446
8 | AACCGUGUGGCGGCCGCCACUAGUCUCCAGUGAUGUUGGAGAGAUCACGUAAGUGAUCUCCGACAUAGGACCGGGCCAUAUGGAA [Same State - Tryptophan B (Freestyle 24)] | 509 | 152 | 295 | 351 | 661
9 | GGCAUAUGAAAUCGCCUAGAGAGAAAGGAUACCAGCACCCGGCGGUGCCCUUGGCAGCCUAGCCCAGUGAUGUUGGGUCCUCUAA [Rasoonanxe] | 228 | 149 | 167 | 296 | 144
10 | UAAGAAUAAGUAGCAGUGAUGUUGCUACUGCGAGGACCGGUACGGCCGCCACUCGAGUCCUCGAAGCAUCACUGAACGAGGAAUA [whbob_SS_Tryp_A_m12] | 272 | 229 | 278 | 326 | 360
11 | UGAUUGGCGAAAGUAGUGAUGUUACGAACAUAGGAUAUUAGAGGAAUAAGAAGGAUGAAUGAGAAAGGAAUAAAUUGUUGGUUGG [#08 K4 FMN A Same State] | 139 | 64 | 165 | 193 | 102
12 | UGACUGGAUGGAAGGAGCGCUAAACUCCUAGUGAUGUUAGGGAUAUGAGGCAAAGCCUCGAAGCAGGUAGGUCGCCAUCUAGUCU [FiskerMod 20 - Jieux - Same State - Arginine B] | 159 | 114 | 148 | 160 | 156
13 | AGUGAAGUUAGUGAUGUGUGAGUUUGGGAAGGAGCGCCGAGAACGGCAGGUAGGUCGCCCAGUGAUGUUGGUGUAAAGAUGAGAG [whbob_Ex_Arginine_A_2t121] | 275 | 184 | 239 | 232 | 208
14 | ACGUAGCAGGCGGCCGCCACUCCGCAUAUGGAUCUCGAGUGAUGUUUGAGGGUGCCCAUCACAGCGAGGACCGGGCCAAUUAAGC [theeternabot_sameState_KL_Trp_B_10] | 86.2 | 105 | 127 | 179 | 254
15 | GGUAGCAUGGCGGCCGCCACUGCAAAGCAUAGCUACGGAAACGUAGCUACAGAGUGAUGUUCUGGCAGGACCGGGCCAUGCUACC | 675 | 487 | 692 | 683 | 330
16 | GGGAAGUACGGAGGAUAUGCACUGAGGAGGAGAAUAUAGUGAUGUUAUAUAAGAGGAAGGAGAAGAGUAGAAGGCCGUGGAAAGG [SSFMNB.C] | 175 | 115 | 228 | 151 | 117
17 | AAUGUACAGGGAAGGAGCGUAGUCCAGUGAUGUUGGAAUUAAAUUCCUGCGAUGUUGGUUAUACAGGUAGGUCGCCCUAAAGUGC [KL-XARG-B22] | 367 | 351 | 436 | 497 | 344
18 | UUAGCUCUAUAGAGCAAGAGGUAUACUGAUACCAGAGGCUAUAGCCUCCCUUGGCAGCGGAUCGAGUGAUGUUCGUAACCUCAUU [AK4.5 SS Theophylline A] | 616 | 661 | 812 | 724 | 433
19 | CCAUCGCUAUUCGAUACCAGUCAUCACAUCUUUGGUGUGAUAAAGGAGUGAUGUUCCCAAGACCCUUGGCAGCGAAUAGUGAUGG [Theophylline B K4 11] | 293 | 222 | 270 | 172 | 250
20 | UUGGCAGUGAUGUUGCCAGAGUUCACCGAAGGAGCGGGUGAAAACCCAGGUAGGUCGCGGUAGCGGAGUGAUUCUCCGCGAGGGC [Same State Arginine A GF 22] | 90.5 | 91 | 86.2 | 93.7 | 91.4
21 | GGAUCCACCAGUGAUGUUGGAGAAAACUCCAAGGAUAUGACGAAAGUCAGAAGGUGGUAGACUGGACAAAGUCCGGUAGGAUCCA [FmnA10 A78] | 992 | 58.5 | 360 | 228 | 193
22 | GUAUCAGUGAUGUUGGUAGGCGAGCGGGAUACCAGCCAAGACUCAGGCCCUUGGCAGCCCACAUAUCCCACGUAGAUAGUAGCUC [Same State - Theophylline A (Freestyle 15)] | 155 | 95.6 | 149 | 139 | 133

Row | Sequence | apparent KD of K4 kissing-loop reporter (input ligand: FMN 200 uM) [nM] | apparent KD of K4 kissing-loop reporter (input ligand: arginine 13.2 mM) [nM] | apparent KD of K4 kissing-loop reporter (input ligand: none) [nM] | apparent KD of K4 kissing-loop reporter [1] [nM] | apparent KD of K4 kissing-loop reporter [2] [nM]
23 | UGUCAUUGGUCGGCCGCCACUUCAAGGUCAAAGACCAAAGAGUGAUGUUCUUAGACGAAAGUCAGAAGGACCGGGACCGAUGACU [TrypBS 9 #SwitchBubble #K4Middle] | 318 | 144 | 204 | 245 | 727
24 | CGAGUGAUGUUCGUUUUUUACUCUGUUUGACAGGAUAUGCGGAAACGCAGAAGGGUCACCUUUGAGUUAAACGGAGUUAUUUUUU [Ex FMN A 20] | 419 | 296 | 366 | 306 | 320
25 | UUUGGAUUGCGCGAAGAGUGCAAGCGCCAACGAGGACCGGUACGGCCGCCACUCGCGGAGGAGUCCAGUGAUGUUGGACGGCCCG [Laraones] | 271 | 276 | 281 | 290 | 185
26 | UAUUAAUUGUCAGGAUAUCGUAUUCGAGUGAUGUUCGUAUAUCGACGAUAGUCGAUAUUAUUUAUACGAGAAGGGACAUUAUUUA [JR_SSFMNB_Sub005] | 292 | 260 | 330 | 274 | 285
27 | ACCUACGAUCACGAAAGUGAUUGUAGGAUCUAGGAUAUGCUGAAGAGCAGAAGGAGAGUGAUGUUCUCAUCUCACGAAAGUGAGA [whbob_Ex_FMNA__2th190] | 437 | 206 | 217 | 245 | 221
28 | AGUGAUGUGGGAAGGAGCGGUACAUGACUUCAGUGAUGUUGAAGUGAUGAUUUAGUGAUGUGCCAGGUAGGUCGCCUAGAUGUUA [KL-XARG-B7] | 79.8 | 36.7 | 68.1 | 41.8 | 51
29 | UUUUGGUACUGAGGAUAUUCGAAGAAAUAUAGUGAUGUUAUAUAAGGAGGAGGAGGGAGGGAGGAAGGAGAAGGCAGAAGAGGAG [ExFMNB.G] | 289 | 163 | 235 | 225 | 266
30 | AGAUUCUUUUUUUUAUUUAAGUUUUCAGAAGGAGCGUGGUAGUACACAGGUAGGUCGCUGAAUUUUGGGCUAGUGAUGUUAGUUA [whbob_SS_Arginine_A_sa115] | 180 | 188 | 221 | 231 | 135
31 | GGUAGCAUGGCGGCCGCCACUCUUCAUUAGUGAUGUUAAUGCCGAGUGGGCAAACUCCGCCAGGAGAGGACCGGGCCAUGCUACC | 82.6 | 75.1 | 80.8 | 62.7 | 244
32 | GGUGACUACCAGAGGUGAUGUAUAGUAUCGCGAGGACCGGUACGGCCGCCACUCGUGAAGAGAAAGGAGUGAUGUUCCGUAAUGG [Kazoo C8] | 396 | 315 | 323 | 627 | 160
33 | CUUCGUAAGGGCCCAGUGAUGUUGGGCACUCGAGGACCGGUACGGCCGCCACUCGCUCCCUAAGUCGCGCGCGUGGGCCACCGCC [Rezariatra] | 128 | 111 | 116 | 102 | 139
34 | GGGUCAGUCUGAAGGAGCGGCCAGACAGAGCAGUGAUGUUGCUCCUAAUUUAAAAGUGUCGGCCAGGUAGGUCGCAGAUUGGCUC [Dienralais] | 154 | 127 | 161 | 152 | 165
35 | AUGCGCGUGCGAUGUAAAUCGCACGCGCAUCGAGGACCGGUACGGCCGCCACUCGCUCGCGCCGAGUGAUGUUCGGCCGGCGAAC [#2 Same State - Tryptophan A Attempt #5 (HarryS)] | 442 | 278 | 527 | 454 | 476
36 | UCCUGCAAUCUACCACGAAAGUGGAUGGAUACCAGAGUCGAAAGACUCCCUUGGCAGCCAGUGAUGUUGGAGCAGGUAAAAUAAA | 670 | 462 | 638 | 514 | 529
37 | ACACAGAGUUGCCGAGUGAUGUUCGGCUUACGAGGACCGGUACGGCCGCCACUCGUUACUCUGUGUUUUGGACACCAAGGCGUCG [Tionzaanon] | 651 | 449 | 543 | 505 | 201
38 | UAGCGAUGAAGUGAUACCAGAGAGUGAUGUUCUUUUUUUAUUCAGAAUACUGUCGCCUUGCUCCCUUGGCAGCACGCAGGCGCAG [theeternabot_exclusion_KL_Theo_B_18] | 206 | 255 | 258 | 311 | 171
39 | GUAUGUGAUGGAAACAUCGCAUACACUGAUACCAGUAUCGAUAGAUACCCUUGGCAGCAGAAAACUGCAAUUGGAGUGAUGUUCC [Ex Theophylline A K4 1] | 213 | 175 | 229 | 216 | 201
40 | GCUCGGGAGUGAUGUUCCAAGUGGUGUUAACGAGGACCGGUACGGCCGCCACUCGAUACGGCCGGGCCGUAGGAUAAACUGGAGC [Same State - Tryptophan A (Freestyle 13)] | 193 | 123 | 154 | 174 | 152
41 | CUUGAUGGAAACAUCGAGUAGAUUACUGAUACCAGUAUCGAUAGAUACCCUUGGCAGCAGAAUCAGUAAUCACGAGUGAUGUUCG [Ex Theophylline A K4 7] | 535 | 528 | 555 | 518 | 485
42 | GUGUGGAUCCGAAGGAGCGUCCGCAAUCCAGUGAUGUUGGGUGUUGGUUUUAGUAGACGAGGACAGGUAGGUCGCGGAUUUACAA [Same State Arginie B GF 23] | 133 | 104 | 153 | 110 | 105
43 | UGUGAACAAAAGUAGAGUGGACCACUAUAGCGAGGACCGGUACGGCCGCCACUCGUGUAUGAAUUCAGUGAUGUUGAAAAGAGCU [whbob_EX_Tryp_A_t11] | 131 | 187 | 138 | 254 | 134
